Patent US20250134019A1, “TRIKETONE DIOXYGENASE VARIANTS FOR HERBICIDE TOLERANCE” (Monsanto Technology LLC, priority 2022, published 2025)

How the values were obtained:
[1] = Enzyme activity (Kcat/Km) for hydroxylation of mesotrione at room temperature; format: biochemical; conditions: Round 2 high-throughput screens
Method: The enzyme activity was expressed as Kcat/Km, M-1 sec-1. […] The enzyme activity was measured at room temperature for the hydroxylation of mesotrione, and was defined as Kcat/Km, M-1 sec-1 (specificity constant). Of these variants, four were tested in soybean plants. […] TDO activity was measured by the second hydroxylation of mesotrione. For routine activity measurements of TDO and determining the kinetic properties of the second hydroxylation, the continuous change in […], which is specific to the second hydroxylation and subsequent non-enzymatic water removal (i.e. the conversion of hydroxy-mesotrione to oxy-mesotrione), was monitored. […] The reaction proceeded until the maximum […] was obtained (usually 20-120 minutes depending upon the concentration of mesotrione) and the linear portion of the curve was determined by visual inspection. […] The reaction mixtures were analyzed by HPLC and mass spectrophotometry. By product conversation followed by peak integration on HPLC, a linear plot was obtained and the extinction co-efficient delta between the substrate (mesotrione) and the second product (oxy-mesotrione) was obtained according to the equation […]=(εp-εs)*bΔp where […] is the change of absorbance at 330 nm and b is the light path.

[2] = tested on: transgenic soybean plants; assay: Response of R0 soybean plants transformed with Round 2 TDO variants to mesotrione; format: in vivo; conditions: R0 transgenic soybean sprayed with mesotrione
From the text: The next set of experiments was focused on determining if the balance between improved enzyme stability could outweigh a reduction in activity observed at optimal temperatures in soybean plants. […] To test this hypothesis, the eight variants from Round 2 biochemical analysis described in the preceding paragraph were transformed into soybean through Agrobacterium-mediated transformation, along with three controls. One of the controls (TDO_9) was a variant from the high-throughput screens that had poor activity. Two other controls were the D08 variant and the Os.TDO. R0 transgenic soybean plants were sprayed with the mesotrione herbicide to screen for herbicide tolerance. […] These included the Os.TDO control, the D08 variant and one Round 2 variant. The plants were scored for percent injury as described in the previous examples.

activity in high-throughput screens [1]: poor activity
B1: TDO_9: Os.TDO variant, SEQ ID NO:44, F199L-K279R relative to D08; control with poor activity (protein)
chain: MADESWRAPALVQELAAKGVEEPPSRYLLREQDRPDVKLVAAELPEPIPVVDLGRLDGAEEATKLRVALQNWGFFLLTNHGIEASLMDDVMNLSREFFNQPIERKQKFSNLIDGKHFQIEGYGTDRVVTQDQVLDWSDRLHLRVEPKEEQDLAFWPDHPESFRDVLHKYASGCKRIRDDIIQAMAKLLELDEDYFLDRLNEAPTFARFNYYPPCPRPDLVFGIRPHSDGGLLTILLVDKDVGGLQVQRDGKWSNVPATPHTLLINLGDTMEVMSNGIFRSPVHRVVTNAEKERISLAMLYSVNDEKDIEPAAGLLDENRPARYRKVSVEEFRAGIFGKFSRGERYIDSLRI
modifications: TDO variant sequence
R0 % Injury [2]: 36%
